The results in this text go back to paper doi:10.1101/2025.07.31.667873 (bioRxiv, 2025).

For this test, the target named is SF3B5 (human (endogenous in K562), UniProt Q9BWJ5 1-86). Description: cryo-EM structure.

B1: TAF6L (natural protein)
chain: MSEREERRFVEIPRESVRLMAESTGLELSDEVAALLAEDVCYRLREATQNSSQFMKHTKRRKLTVEDFNRALRWSSVEAVCGYGSQEALPMRPAREGELYFPEDREVNLVELALATNIPKGCAETAVRVHVSYLDGKGNLAPQGSVPSAVSSLTDDLLKYYHQVTRAVLGDDPQLMKVALQDLQTNSKIGALLPYFVYVVSGVKSVSHDLEQLHRLLQVARSLFRNPHLCLGPYVRCLVGSVLYCVLEPLAASINPLNDHWTLRDGAALLLSHIFWTHGDLVSGLYQHILLSLQKILADPVRPLCCHYGAVVGLHALGWKAVERVLYPHLSTYWTNLQAVLDDYSVSNAQVKADGHKVYGAILVAVERLLKMKAQAAEPNRGGPGGRGCRRLDDLPWDSLLFQESSSGGGAEPSFGSGLPLPPGGAGPEDPSLSVTLADIYRELYAFFGDSLATRFGTGQPAPTAPRPPGDKKEPAAAPDSVRKMPQLTASAIVSPHGDESPRGSGGGGPASASGPAASESRPLPRVHRARGAPRQQGPGTGTRDVFQKSRFAPRGAPHFRFIIAGRQAGRRCRGRLFQTAFPAPYGPSPASRYVQKLPMIGRTSRPARRWALSDYSLYLPL
Consider B1, for which the binding result is listed as “binds”.
